Results: patent US20150344535A1 (UNIVERSITY OF QUEENSLAND, published 2015)

T1: p75^FL on transfected HEK293 cells (UniProt P07174 30-425)
T1 construct: whole, on cells; also called p75^NTR
T1 sequence (looked up): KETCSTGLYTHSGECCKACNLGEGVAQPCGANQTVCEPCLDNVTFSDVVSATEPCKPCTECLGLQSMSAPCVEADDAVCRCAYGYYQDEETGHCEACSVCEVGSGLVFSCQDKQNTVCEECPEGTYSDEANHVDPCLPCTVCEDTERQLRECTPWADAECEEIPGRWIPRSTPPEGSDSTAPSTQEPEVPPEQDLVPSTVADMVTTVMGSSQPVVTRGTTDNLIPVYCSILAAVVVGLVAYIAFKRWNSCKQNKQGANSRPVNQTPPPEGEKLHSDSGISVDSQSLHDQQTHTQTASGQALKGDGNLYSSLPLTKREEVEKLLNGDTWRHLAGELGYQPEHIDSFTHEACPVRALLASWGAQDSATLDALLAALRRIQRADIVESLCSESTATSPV

T2: p75^Δ-JUX (UniProt P07174 30-425)
T2 construct: whole, on cells; In HEK293 lysate in the co-immunoprecipitation, on HEK293 cells in the NGF-FITC assays; also called p75^NTR with an intracellular juxtamembrane deletion
T2 sequence (looked up): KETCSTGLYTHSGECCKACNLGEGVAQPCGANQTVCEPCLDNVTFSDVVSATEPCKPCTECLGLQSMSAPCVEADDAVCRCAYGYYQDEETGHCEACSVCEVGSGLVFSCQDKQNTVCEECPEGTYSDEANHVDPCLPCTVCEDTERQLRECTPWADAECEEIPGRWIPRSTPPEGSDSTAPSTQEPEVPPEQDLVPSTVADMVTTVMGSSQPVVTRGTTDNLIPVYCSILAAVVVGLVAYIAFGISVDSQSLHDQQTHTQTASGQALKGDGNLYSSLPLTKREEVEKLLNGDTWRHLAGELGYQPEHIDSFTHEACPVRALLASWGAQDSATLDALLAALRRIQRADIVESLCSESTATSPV

B1: NGF-FITC (ligand, mouse, UniProt P01139 122-239, looked up)
chain: SSTHPVFHMGEFSVCDSVSVWVGDKTTATDIKGKEVTVLAEVNINNSVFRQYFFETKCRASNPVESGCRGIDSKHWNSYCTTTHTFVKALTTDEKQAAWRFIRIDTACVCVLSRKATR
modifications: conjugated to FITC
notes: also called fluorescently labelled NGF; FITC-NGF
B2: unlabelled NGF (ligand, mouse, UniProt P01139 122-239, looked up)
chain: B1 chain
notes: also called unlabeled NGF

Experiments:
TrkAK538A [1] = biological target: T3, TrkAK538A; test: real-time flow cytometry, Hill-Slope association curve, TrkAK538A-expressing HEK293 cells pre-treated with c29
T3 construct: whole, on cells; On transfected HEK293 cells in flow cytometry; in HEK293 lysates in the co-immunoprecipitations; also called TrkK538A

[2] = biological target: T1, p75^FL on transfected HEK293 cells; test: flow cytometry, 26 nM NGF-FITC 60 min on ice, transfected HEK293 cells
Protocol: (§1) To investigate NGF binding, PC12 or transfected HEK293 cells were serum starved for 4 hours, harvested, washed with Dulbecco's Modified Eagle Medium (DMEM), and counted. When used, c29 or scrambled peptide were added to cultures for the third hour of the serum starvation procedure.

p75^Δ-JUX [3] = biological target: T2, p75^Δ-JUX; test: as above
Protocol: as §1

TrkAK538A [4] = biological target: T3, TrkAK538A; test: as above
Protocol: as §1

[5] = biological target: T4, TrkAK538A and p75^Δ-JUX co-expressed on HEK293 cells (UniProt P07174 30-425); test: flow cytometry competition against 26 nM NGF-FITC, co-transfected HEK293 cells
T4 construct: whole, on cells; Two receptors on the same cells; also called TrkAK538A + p75^ΔJUX
Protocol: as §1

[6] = biological target: T5, TrkAK538A and p75^FL co-expressed on HEK293 cells (UniProt P07174 30-425); test: as above
T5 construct: whole, on cells; Two receptors on the same cells; also called TrkAK538A + p75^FL
Protocol: as §1

[7] = biological target: T1, p75^FL on transfected HEK293 cells; test: flow cytometry competition against 26 nM NGF-FITC, transfected HEK293 cells
Protocol: as §1

p75^Δ-JUX [8] = biological target: T2, p75^Δ-JUX; test: as above
Protocol: as §1

TrkAK538A [9] = biological target: T3, TrkAK538A; test: as above
Protocol: as §1

Binder	fold faster association rate against untreated TrkAK538A-expressing cells (TrkAK538A [1]) [fold]	% of cells with fluorescence intensity above background [2] [%]	% of cells with fluorescence intensity above background (p75^Δ-JUX [3]) [%]	% of cells with fluorescence intensity above background (TrkAK538A [4]) [%]	excess of unlabelled NGF required for NGF-FITC binding to fall to background fluorescence [5] [fold]	excess of unlabelled NGF required for NGF-FITC binding to fall to background fluorescence [6] [fold]	excess of unlabelled NGF required for NGF-FITC binding to fall to background fluorescence [7] [fold]	excess of unlabelled NGF required for NGF-FITC binding to fall to background fluorescence (p75^Δ-JUX [8]) [fold]	excess of unlabelled NGF required for NGF-FITC binding to fall to background fluorescence (TrkAK538A [9]) [fold]
B1	~3	80	80	80	–	–	–	–	–
B2	–	–	–	–	1000	1000	1000	1000	1000
